# PMC3384303 (Nucleic Acids Research, 2012)
# Target: the molecule itself
# Assay: crystal structure
protein,measurement,value
"SsbB (natural protein, Bacillus subtilis, UniProt C0SPB6 1-113, looked up) MFNQVMLVGRLTKDPDLRYTSAGAAVAHVTLAVNRSFKNASGEIEADYVNCTLWRKTAENTALYCQKGSLVGVSGRIQTRSYENEEGVNVYVTEVLADTVRFMDPKPREKAAD",stoichiometry N,4
